Test results taken from patent publication US20110293610A1 (published 2011).
Where a chain is given by its changes, count along the chain named.

B1: I080G09 (scFv)
scFv: QVQLVQSGAEVKKPGASVRVSCKSSGYTFTNYGISWVRQAPGQGLEWMGWISNNNGKTYYAQKVQGRVTMTTDTSTSTDYMELRGLRSDDTAIYYCARDNGGGTIGFDYWGQGTLVTVSSGGGGSGGGGSGGGGSAQSVLTQPPSVSGAPGQRVTISCTGSSSNIGADYDVHWYQLLPGTAPKLLIYGNTNRPSGVPDRFSGSKSGTSASLTIAGLQAEDEADYYCQSYDSSLSGSVVFGGGTKLTVLG
B2: I084B02 (scFv)
scFv: QVQLVQSGGGLVQPGGSLRLSCAASGFTFSSYEMNWVRQAPGKGLEWVSYISSSGSTTYYADSVKGRFTISRDNAKNSLYLQMNSLRAEDTAVYYCARDTTDYWGQGTLVTVSSGGGGSGGGGSGGGGSDIVMTQSPSTLSASVGDRVTITCRASQGISSWLAWYQQKPGRAPKVLIYKASTLESGVPSRFSGSGSGTDFTLTISSLQPEDFATYYCQQSYSTPWTFGQGTKLEIKR
B3: I080D03 (scFv)
scFv: QVQLVQSGAELKQPGTSVKVSCKASGYSFSSYGVTWVRQAPGQGLEWMGWVSGNRGNTQYAQKFQDRVRMTTDTSTSTAYMELRSLRPDDTAVYFCARVGIKAAAVDNFEYWGRGTTVTVSSGGGGSGGGGSGGGGSAQSVLTQPPSASGTPGQRVTITCSGSSSNIGDYYVNWYQQVSGTTPKLIIYRDDQRPSGVPDRFSGSKSGASASLAISGLRSEDEANYFCAAWDDSLREFAFGTGTKVTVLG
B4: I080A03 (scFv)
scFv: QVQLQQSGAELKQPGTSVKVSCKASGYSFSCYDVNWVRQAPGQGLEWMGRINPNSGNTHYAQKFQDRVTMTTDTSTSTAYMELNSLRPDDTAVYFCARVGIKAAAVDNFEYWGRGTTVTVSSGGGGSGGGGSGGGGSAQSVLTQPPSASGTPGQRVTITCSGSSSNIGDYYVNWYQQVSGTTPKLIIYRDDQRPSGVPDRFSGSKSGASASLAISGLRSEDEANYFCAAWDDSLREFAFGTGTKVTVLG
B5: I083G03 (scFv)
scFv: B3 scFv with A92D
B6: I080A08 (scFv)
scFv: QVTLKESGGDLVQPGGSLRLSCAASGLTFMSYAMTWVRQAPGKGLEWVSSISGSGDNTYYGDSVRGRFTISRDNSKNTLFLQLNSLRAEDTAFYYCAKVHSTGYAFENWGRGTLVTVSSGGGGSGGGGSGGGGSAQSVLTQPPSVSGAPGQRVTISCTGSSSNIGAGYNVHWYQQLPGTAPRLLISSNTNRPSGVPDRFSGSKSGTSASLAITGLQAEDEADYYCQSYDSSLSGFVFGTGTKVTVLG
B7: I082B08 (scFv)
scFv: QVQLVQSGAEVKKPGGSVKVSCKASAYTFTRYYMHWVRQAPGQGLEWMGIINPSGGRTSYAQKFQGRVTMTRDTSTSTVYMELSSLRSEDTAVYYCARDLGIAGTIYFDYWGKGTLVTVSSGGGGSGGGGSGGGGSQSVLTQPPSVSAAPGQKVTISCSGSTSNIGNNYVSWYQQHPGKAPKLMIYDVSKRPSGVPDRFSGSKSGNSASLDISGLQSEDEADYYCAAWDDSLSEFLFGTGTKLTVLG
B8: I084A01 (scFv)
scFv: QVQLVQSGGGLVQPGGSLRLSCAASGFTFSSYEMNWVRQAPGKGLEWVSYISSSGSTTYYADSVKGRFTISRDNAKNSLYLQMNSLRAEDTAVYYCARDTTDYWGQGTMVTVSSGGGGSGGGGSGGGGSQSVLTQPPSASGTPGQRVTISCSGSSSNIGSNTVNWYQRLPGAAPQLLIYNNDQRPSGIPDRFSGSKSGTSGSLVISGLQSEDEADYYCASWDDSLNGRVFGGGTKLTVLG

Molecular target: T1, HIS-tagged B Lymphocyte Stimulator (human, UniProt Q9Y275 71-285)
T1 construct: Expressed in E. coli; also called HIS-B Lymphocyte Stimulator; histidine-tagged B Lymphocyte Stimulator; not shown: histidine tag from the pQE9 vector
T1 sequence (Q9Y275 71-285): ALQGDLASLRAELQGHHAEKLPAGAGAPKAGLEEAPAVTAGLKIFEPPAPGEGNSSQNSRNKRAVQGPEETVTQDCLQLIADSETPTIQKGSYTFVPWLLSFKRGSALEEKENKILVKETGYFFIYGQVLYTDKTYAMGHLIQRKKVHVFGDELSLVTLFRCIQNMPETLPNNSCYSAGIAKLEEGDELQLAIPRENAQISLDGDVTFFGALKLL
Assay: BIAcore, periplasmic scFv over high density HIS-BLyS surface
Protocol: All BIAcore analysis was performed on BIAcore 2000 machines, using the BIAcore 2000 control software and evaluated using the BIAevaluation 3.0 software. A high density His-tagged B Lymphocyte Stimulator surface (>1000 RU HIS-B Lymphocyte Stimulator coupled) was prepared in flow cell 2 by amine coupling to a CM5 chip. A new CM5 chip was inserted into the BIAcore and a sensorgram started over flow cell 2 with HBS buffer at a flow rate of 5 μl/min. The NHS and EDC solution were mixed 1:1 before injecting 30 μl over the CM5 surface. Fifty μl HIS-B Lymphocyte Stimulator (at 10 μg/ml in Sodium acetate buffer, pH4) was injected and allowed to couple to the surface. Thirty μl of ethanolamine-HCl solution was then injected to block free NHS esters. Prior to using the chip, 10 μl of 4M Guanidine hydrochloride in HBS was injected over the surface to strip the surface of non-covalently bound B Lymphocyte Stimulator. A blank surface (no HIS-B Lymphocyte Stimulator) was also prepared over flow cell 1 so that non-specific binding effects can be subtracted from the HIS-B Lymphocyte Stimulator binding curves.
The 96-well plate containing periplasmic scFvs was secured inside the BIAcore. Two ml of 4M Guanidine hydrochloride in HBS was placed in a rack inside the BIAcore for regeneration of the HIS-B Lymphocyte Stimulator surface between samples. The sensorgram was run over flow cells 1 and 2 at a flow rate of […].

Binding result, binds:
B1, B2, B3, B4, B5, B6, B7, B8
